Measurements from patent EP4755915A1 (Medytox Inc., dated 2026).

What was measured:
[1] = molecular target: T1, fetal acetylcholine receptor (AChR) on the cell membrane of TE671 cells (human, UniProt P02708 21-457; P11230 24-501; Q07001 22-517; P07510 23-517); experiment: flow cytometry competition on TE671 cells expressing fetal AChR; competitor biotinylated mAb637 at 8 µg/ml, detected with labelled streptavidin
T1 construct: whole, on cells; The subunit make-up (alpha2, beta, gamma, delta) is general knowledge of the fetal receptor; also called autoantigen AChR

[2] = molecular target: AChR (A, B, D and E) expressed on recombinant 293T cells; experiment: cell-based or functional assay

T1 sequence (P02708 21-457, chain 1 of 4): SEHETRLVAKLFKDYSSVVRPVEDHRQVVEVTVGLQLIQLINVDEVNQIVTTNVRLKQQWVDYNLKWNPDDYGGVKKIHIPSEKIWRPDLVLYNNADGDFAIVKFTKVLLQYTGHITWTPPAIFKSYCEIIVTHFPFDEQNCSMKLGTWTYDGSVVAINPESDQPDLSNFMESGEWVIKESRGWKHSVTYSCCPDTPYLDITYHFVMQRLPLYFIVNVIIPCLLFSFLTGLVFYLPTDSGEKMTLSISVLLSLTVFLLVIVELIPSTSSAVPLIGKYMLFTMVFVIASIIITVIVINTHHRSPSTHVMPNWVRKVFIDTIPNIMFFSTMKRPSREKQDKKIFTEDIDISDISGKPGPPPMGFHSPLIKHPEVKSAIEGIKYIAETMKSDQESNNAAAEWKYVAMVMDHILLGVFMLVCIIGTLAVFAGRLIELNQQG
T1 sequence (P11230 24-501, chain 2 of 4): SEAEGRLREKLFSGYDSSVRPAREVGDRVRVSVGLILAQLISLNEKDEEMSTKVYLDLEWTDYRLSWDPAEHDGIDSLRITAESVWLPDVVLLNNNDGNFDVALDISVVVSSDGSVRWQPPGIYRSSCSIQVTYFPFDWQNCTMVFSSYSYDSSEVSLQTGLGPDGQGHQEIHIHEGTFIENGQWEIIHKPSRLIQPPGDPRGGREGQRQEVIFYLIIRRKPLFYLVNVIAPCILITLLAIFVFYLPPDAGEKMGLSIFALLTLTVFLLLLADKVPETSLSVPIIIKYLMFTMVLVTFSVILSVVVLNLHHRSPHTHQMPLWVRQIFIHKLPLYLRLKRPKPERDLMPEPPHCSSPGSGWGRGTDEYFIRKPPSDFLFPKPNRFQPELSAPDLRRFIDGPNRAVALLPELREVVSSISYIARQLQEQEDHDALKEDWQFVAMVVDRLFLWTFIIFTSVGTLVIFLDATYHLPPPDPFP
T1 sequence (Q07001 22-517, chain 3 of 4): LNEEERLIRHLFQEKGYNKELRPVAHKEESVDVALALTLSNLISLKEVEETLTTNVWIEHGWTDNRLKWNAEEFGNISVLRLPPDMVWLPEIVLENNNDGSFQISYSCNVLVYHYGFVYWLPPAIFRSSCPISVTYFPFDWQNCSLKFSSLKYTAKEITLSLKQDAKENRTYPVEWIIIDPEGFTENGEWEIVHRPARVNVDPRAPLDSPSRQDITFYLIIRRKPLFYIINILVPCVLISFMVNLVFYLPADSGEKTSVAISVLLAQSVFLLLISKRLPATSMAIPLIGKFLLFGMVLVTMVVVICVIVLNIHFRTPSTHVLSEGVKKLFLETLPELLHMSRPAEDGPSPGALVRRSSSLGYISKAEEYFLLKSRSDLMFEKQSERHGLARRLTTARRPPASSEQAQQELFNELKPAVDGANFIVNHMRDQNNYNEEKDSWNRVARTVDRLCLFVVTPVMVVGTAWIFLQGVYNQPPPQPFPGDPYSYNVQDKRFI
T1 sequence (P07510 23-517, chain 4 of 4): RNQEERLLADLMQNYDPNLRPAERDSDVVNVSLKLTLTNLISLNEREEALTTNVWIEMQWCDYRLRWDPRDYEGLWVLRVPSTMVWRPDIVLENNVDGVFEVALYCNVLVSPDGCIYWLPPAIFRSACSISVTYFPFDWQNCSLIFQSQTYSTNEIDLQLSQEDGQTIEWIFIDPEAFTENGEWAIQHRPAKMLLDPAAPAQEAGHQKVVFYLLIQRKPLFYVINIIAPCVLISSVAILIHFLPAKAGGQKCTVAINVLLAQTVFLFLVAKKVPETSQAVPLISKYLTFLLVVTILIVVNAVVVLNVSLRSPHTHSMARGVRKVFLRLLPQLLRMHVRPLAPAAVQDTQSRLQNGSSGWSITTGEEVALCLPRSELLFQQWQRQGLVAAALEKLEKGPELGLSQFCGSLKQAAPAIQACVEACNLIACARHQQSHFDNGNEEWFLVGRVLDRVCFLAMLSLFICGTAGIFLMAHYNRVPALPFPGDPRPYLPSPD

Binder | binding result [1] | decrease of the ratio of C5b-9 positive cells caused by humanized mAb35, at 0.15 µg/ml [2] [%] | decrease of apoptosis (CDC cell death) caused by humanized mAb35, at 0.15 µg/ml [2] [%]
mAb637 B (antibody, human IgG2, kappa, also called candidate antibody) heavy: NFELTQPHSVSESPGKTVTISCTRSSGSIASNYVQWYQQRPGSSPTTVIYEDNQRPSGVPDRFSGSIDSSSNSASLTISGLKTEDEADYYCQSYDSNSGGRVFGGGTKLTVLRTVAAPSVFIFPPSDEQLKSGTASVVCLLNNFYPREAKVQWKVDNALQSGNSQESVTEQDSKDSTYSLSSTLTLSKADYEKHKVYACEVTHQGLSSPVTKSFNRGECERKCCVECPPCPAPPVAGPSVFLFPPKPKDTLMISRTPEVTCVVVDVSQEDPEVQFNWYVDGVEVHNAKTKPREEQFNSTYRVVSVLTVLHQDWLNGKEYKCKVSNKGLPSSIEKTISKAKGQPREPQVYTLPPSQEEMTKNQVSLTCLVKGFYPSDIAVEWESNGQPENYKTTPPVLDSDGSFFLYSRLTVDKSRWQEGNVFSCSVMHEALHNHYTQKSLSLSLGK light: QVQLLESGGGLVKPGGSLRLSCAASGFKSTDYYMAWVRQAPGRGLEWVSFISGRVFTNYTASVRGRFTVFREDDNTSVYLQMSRLRVEDTAVYYCARLRGIFRGPLKPLEYYFDLWGRGTLVTVSSASTKGPSVFPLAPCSRSTSESTAALGCLVKDYFPEPVTVSWNSGALTSGVHTFPAVLQSSGLYSLSSVVTVPSSNFGTQTYTCNVDHKPSNTKVDKTV | binds |  | 
mAb192 C IgG1 (antibody) heavy: not shown light: QVQLLESGPGLVQPSQTLSLTCTVSGFSLTTNGVSWVRQPPGKGLEWIAAISSGGSPYYNSALKSRLSINRDTSKSQVFLKMNSLQTEDTAIYFCTREDGWNYFDYWGPGTMVTVSSASVAAPSVFIFPPSDEQLKSGTASVVCLLNNFYPREAKVQWKVDNALQSGNSQESVTEQDSKDSTYSLSSTLTLSKADYEKHKVYACEVTHQGLSSPVTKSFNRGEC |  | > 60 | > 37

Now from value to binder, other results behind:

binding result [1] | decrease of the ratio of C5b-9 positive cells caused by humanized mAb35, at 0.15 µg/ml [2] [%] | Binder | decrease of apoptosis (CDC cell death) caused by humanized mAb35, at 0.15 µg/ml [2] [%]
 | > 60 | mAb192 C IgG2/4 (antibody) heavy: DIQMTQSPPSLSASLGDKVTITCQASQDINKYIAWYQQKPGKAPRQLIRYTSILVLGTPSRFSGSGSGRDFSFSISNVASEDIASYYCLQYGNLYTFGAGTKLEIKRSSASTKGPSVFPLAPCSRSTSESTAALGCLVKDYFPEPVTVSWNSGALTSGVHTFPAVLQSSGLYSLSSVVTVPSSNFGTQTYTCNVDHKPSNTKVDKTVERKCCVECPPCPAPPVAGPSVFLFPPKPKDTLMISRTPEVTCVVVDVSQEDPEVQFNWYVDGVEVHNAKTKPREEQFNSTYRVVSVLTVLHQDWLNGKEYKCKVSNKGLPSSIEKTISKAKGQPREPQVYTLPPSQEEMTKNQVSLTCLVKGFYPSDIAVEWESNGQPENYKTTPPVLDSDGSFFLYSRLTVDKSRWQEGNVFSCSVMHEALHNHYTQKSLSLSLGK light: QVQLLESGPGLVQPSQTLSLTCTVSGFSLTTNGVSWVRQPPGKGLEWIAAISSGGSPYYNSALKSRLSINRDTSKSQVFLKMNSLQTEDTAIYFCTREDGWNYFDYWGPGTMVTVSSASVAAPSVFIFPPSDEQLKSGTASVVCLLNNFYPREAKVQWKVDNALQSGNSQESVTEQDSKDSTYSLSSTLTLSKADYEKHKVYACEVTHQGLSSPVTKSFNRGEC | > 37
 | > 60 | mAb192 C IgG4 (antibody) heavy: not shown light: QVQLLESGPGLVQPSQTLSLTCTVSGFSLTTNGVSWVRQPPGKGLEWIAAISSGGSPYYNSALKSRLSINRDTSKSQVFLKMNSLQTEDTAIYFCTREDGWNYFDYWGPGTMVTVSSASVAAPSVFIFPPSDEQLKSGTASVVCLLNNFYPREAKVQWKVDNALQSGNSQESVTEQDSKDSTYSLSSTLTLSKADYEKHKVYACEVTHQGLSSPVTKSFNRGEC | > 37
